Biological target: SOD1-His ( (human or mouse cDNA cloned), UniProt P00441 1-154)
Assay: cell-based or functional assay

Sequence of SOD1-His (P00441 whole entry): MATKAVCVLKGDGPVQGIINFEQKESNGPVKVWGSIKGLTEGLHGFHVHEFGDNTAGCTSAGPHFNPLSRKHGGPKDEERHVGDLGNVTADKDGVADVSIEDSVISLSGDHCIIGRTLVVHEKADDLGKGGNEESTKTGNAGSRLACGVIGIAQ

SOD1 activity of purified SOD1 after 15 h incubation with purified YWHAZ at ratios 1:1 and 1:3 (1 SOD1 to 3 YWHAZ protein amount); value at 1:3: ~2 fold
B1: YWHAZ-His (natural protein, UniProt P63104 1-245, looked up)
chain: MDKNELVQKAKLAEQAERYDDMAACMKSVTEQGAELSNEERNLLSVAYKNVVGARRSSWRVVSSIEQKTEGAEKKQQMAREYREKIETELRDICNDVLSLLEKFLIPNASQAESKVFYLKMKGDYYRYLAEVAAGDDKKGIVDQSQQAYQEAFEISKKEMQPTHPIRLGLALNFSVFYYEILNSPEKACSLAKTAFDEAIAELDTLSEESYKDSTLIMQLLRDNLTLWTSDTQGDEAEAGEGGEN

— article PMC9966940, “Evidence and Metabolic Implications for a New Non-Canonical Role of Cu-Zn Superoxide Dismutase” (International Journal of Molecular Sciences, 2023)
